Assay results published in paper PMC4526660.
“And” between values parts separate entries of the source, which are not always exact repeats. Equal entries are not always repeated. Where two headings read alike, the source gives them in different places.

Legend:
[1] = molecular target: Phosphatase and tensin homolog deleted on chromosome 10 (PTEN) (African green monkey (endogenous in Vero)); experiment: co-IP; immunoprecipitation with PTEN, Rak or β-arrestin antibodies from Vero cells, mock, ARV-infected or p17-transfected, also with Rak shRNA, Rock-1 shRNA, Y-27632 or TBB; 500 ug cellular proteins with 4 ug antibody at 4°C overnight; Western blot; amounts normalized to mock controls
[2] = molecular target: Phosphatase and tensin homolog deleted on chromosome 10 (PTEN) (African green monkey (endogenous in Vero)); experiment: as above; remark: listed apart in the source

Chain of Rak (P42685 whole entry): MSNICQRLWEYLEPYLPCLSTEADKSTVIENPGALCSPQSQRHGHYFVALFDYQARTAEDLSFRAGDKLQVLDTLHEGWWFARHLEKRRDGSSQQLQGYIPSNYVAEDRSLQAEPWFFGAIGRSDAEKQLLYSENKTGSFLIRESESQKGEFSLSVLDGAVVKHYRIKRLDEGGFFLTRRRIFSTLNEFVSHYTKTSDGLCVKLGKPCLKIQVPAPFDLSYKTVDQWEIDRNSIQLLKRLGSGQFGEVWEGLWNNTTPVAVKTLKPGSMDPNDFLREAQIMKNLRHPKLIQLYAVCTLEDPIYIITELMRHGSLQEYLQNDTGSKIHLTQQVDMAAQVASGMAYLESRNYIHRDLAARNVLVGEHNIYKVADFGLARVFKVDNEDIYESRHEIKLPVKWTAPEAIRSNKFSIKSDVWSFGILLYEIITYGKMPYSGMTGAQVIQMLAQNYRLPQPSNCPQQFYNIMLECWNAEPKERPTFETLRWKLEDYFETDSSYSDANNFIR

For E3 ligase NEDD4-1 (natural protein), the other [1] was 2.8 fold and 3.1 fold and the other [2] was 2.35 fold and 2.45 fold.

A fold increase of Rak-PTEN association against mock, ARV-infected cells [1] of 3.8 fold and a fold increase of Rak-PTEN association against mock, p17-transfected cells [1] of 4.5 fold were found for “Rak (from UniProt P42685-1 1-505) (natural protein)” in this work.

A fold increase of β-arrestin-PTEN association against mock, ARV-infected cells [1] of 3.5 fold and a fold increase of β-arrestin-PTEN association against mock, p17-transfected cells [1] of 6 fold were found for β-arrestin (natural protein) in this work.
